From patent EP4755449A2 (CHUGAI SEIYAKU KABUSHIKI KAISHA, dated 2026)
Substitutions are numbered along the chain they refer to. In names and notes the source's numbering stands.

T1: mouse latent myostatin (mouse, UniProt O08689 26-267; O08689 268-376)
T1 sequence 1: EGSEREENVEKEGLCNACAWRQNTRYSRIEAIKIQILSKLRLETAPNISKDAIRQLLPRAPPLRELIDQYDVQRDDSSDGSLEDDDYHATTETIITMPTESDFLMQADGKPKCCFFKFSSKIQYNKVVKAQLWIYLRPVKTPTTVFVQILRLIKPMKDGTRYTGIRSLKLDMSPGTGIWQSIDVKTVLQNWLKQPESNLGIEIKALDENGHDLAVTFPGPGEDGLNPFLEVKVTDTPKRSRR
T1 sequence 2: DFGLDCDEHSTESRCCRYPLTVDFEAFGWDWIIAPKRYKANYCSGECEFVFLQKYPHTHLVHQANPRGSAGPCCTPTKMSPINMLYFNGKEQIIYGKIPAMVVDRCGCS

T2: human latent myostatin (human, UniProt O14793 25-266; O14793 267-375)
T2 construct: non-covalent complex of two propeptides and the mature homodimer; also called human myostatin latent form
T2 sequence 1: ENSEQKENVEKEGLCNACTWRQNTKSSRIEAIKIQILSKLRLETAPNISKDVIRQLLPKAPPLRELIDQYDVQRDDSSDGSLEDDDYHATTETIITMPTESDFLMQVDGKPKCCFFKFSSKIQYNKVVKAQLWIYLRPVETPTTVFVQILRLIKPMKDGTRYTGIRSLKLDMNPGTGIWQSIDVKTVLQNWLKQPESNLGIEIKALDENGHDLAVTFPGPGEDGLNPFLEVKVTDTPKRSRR
T2 sequence 2: T1 sequence 2

T3: cynomolgus monkey latent myostatin (cynomolgus monkey, UniProt Q95J86 25-266; Q95J86 267-375, limits assumed)
T3 construct: also called cyno latent myostatin
T3 sequence 1: T2 sequence 1 with V52A
T3 sequence 2: T1 sequence 2

B1: GpH7-B3 G237Y/GpL16-k0 (antibody, human IgG1, kappa)
heavy: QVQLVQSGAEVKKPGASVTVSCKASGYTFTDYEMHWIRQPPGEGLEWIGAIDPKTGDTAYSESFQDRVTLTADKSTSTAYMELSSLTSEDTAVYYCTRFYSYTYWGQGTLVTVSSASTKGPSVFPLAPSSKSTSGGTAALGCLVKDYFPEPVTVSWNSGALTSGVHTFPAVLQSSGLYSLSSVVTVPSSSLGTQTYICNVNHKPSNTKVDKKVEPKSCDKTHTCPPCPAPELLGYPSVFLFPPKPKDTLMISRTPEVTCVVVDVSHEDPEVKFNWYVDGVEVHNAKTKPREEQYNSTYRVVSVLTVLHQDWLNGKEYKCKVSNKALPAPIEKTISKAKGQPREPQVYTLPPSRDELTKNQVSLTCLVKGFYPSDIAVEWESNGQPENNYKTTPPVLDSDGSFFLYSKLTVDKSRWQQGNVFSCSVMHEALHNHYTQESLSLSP
light: DIVMTQSPLSLPVTPGEPASISCQASESLVHSNRNTYLHWYLQKPGQSPQLLIYKVSNRFSGVPDRFSGSGSGTDFTLKISRVEAEDVGVYYCSQNTHVPPTFGQGTKVEIERTVAAPSVFIFPPSDEQLKSGTASVVCLLNNFYPREAKVQWKVDNALQSGNSQESVTEQDSKDSTYSLSSTLTLSKADYEKHKVYACEVTHQGLSSPVTKSFNRGEC
notes: copies: 2 + 2
B2: GpH7-B3 N325L/GpL16-k0 (antibody, human IgG1, kappa)
heavy: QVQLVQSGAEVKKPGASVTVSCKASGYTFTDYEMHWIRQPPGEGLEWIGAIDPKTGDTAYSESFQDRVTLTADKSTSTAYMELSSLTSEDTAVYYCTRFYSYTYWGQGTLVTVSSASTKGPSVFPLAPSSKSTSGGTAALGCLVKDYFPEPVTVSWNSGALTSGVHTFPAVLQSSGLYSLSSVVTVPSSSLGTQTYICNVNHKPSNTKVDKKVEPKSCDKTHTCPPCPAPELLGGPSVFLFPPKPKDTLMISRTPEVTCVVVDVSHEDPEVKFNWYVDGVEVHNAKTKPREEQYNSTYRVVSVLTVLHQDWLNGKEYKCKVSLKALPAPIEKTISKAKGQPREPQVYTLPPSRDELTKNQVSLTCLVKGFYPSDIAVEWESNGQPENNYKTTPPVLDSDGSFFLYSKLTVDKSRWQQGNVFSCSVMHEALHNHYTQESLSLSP
light: B1 light
notes: copies: 2 + 2
B3: MS_M103240H1246-SG1/M103202L1045-SK1 (antibody, human IgG1, kappa, V domains shown)
VH: QVQLVESGGGLVQPGGSLRLSCAVSGIDLSHEDISWVRQAPGKGLEWVSIISYAGSKYYASWAKGRLTISKDTSKNQVVLTMTNMDPVDTATYYCARGVPAYSHGGDLWGQGTLVTVSS
VL: DIVMTQSPATLSLSPGERATLSCTTSQSVYHENWLSWFQQKPGQPPKLLIYWASTLAYGVPSRFSGSGSGTDFTLTISSLQPEDAATYYCAGGYGGGRYAFGQGTKVEIKR
notes: also called MS1032LO25-SG1
B4: MS_M103205H795-SG1/M103202L889-SK1 (antibody, human IgG1, kappa)
heavy: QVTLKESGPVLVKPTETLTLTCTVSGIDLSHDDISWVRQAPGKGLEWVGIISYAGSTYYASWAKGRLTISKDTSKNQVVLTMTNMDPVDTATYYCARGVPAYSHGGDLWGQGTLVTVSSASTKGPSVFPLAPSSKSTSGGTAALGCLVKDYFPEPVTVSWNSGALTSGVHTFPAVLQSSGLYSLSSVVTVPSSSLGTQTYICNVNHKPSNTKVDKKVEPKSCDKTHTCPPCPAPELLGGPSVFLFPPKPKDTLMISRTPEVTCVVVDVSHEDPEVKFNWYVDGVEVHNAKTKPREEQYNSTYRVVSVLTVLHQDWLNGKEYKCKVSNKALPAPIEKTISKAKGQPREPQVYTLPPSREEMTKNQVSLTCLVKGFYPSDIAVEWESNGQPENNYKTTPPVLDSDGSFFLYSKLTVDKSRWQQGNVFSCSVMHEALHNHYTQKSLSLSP
light: DIVMTQSPATLSLSPGERATLSCTSSQSVYHANWLSWFQQKPGQPPKLLIYWASTLAYGVPSRFSGSGSGTDFTLTISSLQPEDAATYYCAGGYGGGRYAFGQGTKVEIKRTVAAPSVFIFPPSDEQLKSGTASVVCLLNNFYPREAKVQWKVDNALQSGNSQESVTEQDSKDSTYSLSSTLTLSKADYEKHKVYACEVTHQGLSSPVTKSFNRGEC
notes: also called MS1032LO06-SG1
B5: MS_M103240H795-SG1/M103202L1045-SK1 (antibody, human IgG1, kappa)
heavy: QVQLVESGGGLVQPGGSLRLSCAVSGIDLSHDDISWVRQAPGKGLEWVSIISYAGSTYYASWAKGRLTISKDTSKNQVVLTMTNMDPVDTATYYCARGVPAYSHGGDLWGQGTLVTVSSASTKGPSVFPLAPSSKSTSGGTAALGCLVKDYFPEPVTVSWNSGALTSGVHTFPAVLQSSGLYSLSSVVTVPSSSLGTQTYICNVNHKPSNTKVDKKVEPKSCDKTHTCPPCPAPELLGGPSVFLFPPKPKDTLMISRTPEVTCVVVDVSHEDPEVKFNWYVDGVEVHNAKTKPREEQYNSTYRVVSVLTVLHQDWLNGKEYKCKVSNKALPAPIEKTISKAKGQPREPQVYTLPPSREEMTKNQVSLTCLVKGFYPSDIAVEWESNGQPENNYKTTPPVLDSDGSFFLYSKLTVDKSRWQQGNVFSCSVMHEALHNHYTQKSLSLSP
light: B4 light with S25T, A32E
notes: also called MS1032LO19-SG1
B6: MS_M103205H1004-SG1/M103202L889-SK1 (antibody, human IgG1, kappa, V domains shown)
VH: QVTLKESGPVLVKPTETLTLTCTVSGIDLSHDDISWVRQAPGKGLEWVGIISYAGSMYYASWAKGRLTISKDTSKNQVVLTMTNMDPVDTATYYCARGVPAYSHGGDKWGQGTLVTVSS
VL: B3 VL with T25S, E32A
notes: also called MS1032LO07-SG1
B7: MS_M103205H1046-SG1/M103202L889-SK1 (antibody, human IgG1, kappa, V domains shown)
VH: B6 VH with D32T, S56K, M57T, G65K, K108L
VL: B3 VL with T25S, E32A
notes: also called MS1032LO10-SG1
B8: MS_M103245H1233-SG1/M103202L1045-SK1 (antibody, human IgG1, kappa, V domains shown)
VH: B6 VH with T23K, D32E, G49S, M57T, K108L
VL: B3 VL
notes: also called MS1032LO23-SG1
B9: MS_M103245H795-SG1/M103202L1045-SK1 (antibody, human IgG1, kappa, V domains shown)
VH: B6 VH with T23K, G49S, M57T, K108L
VL: B3 VL
notes: also called MS1032LO21-SG1
B10: MS_M103205H1057-SG1/M103202L889-SK1 (antibody, human IgG1, kappa, V domains shown)
VH: B6 VH with D32T, M57K, Y59K, K108L
VL: B3 VL with T25S, E32A
notes: also called MS1032LO12-SG1
B11: MS_M103205H1047-SG1/M103202L889-SK1 (antibody, human IgG1, kappa, V domains shown)
VH: B6 VH with D32T, S56K, M57K, K108L
VL: B3 VL with T25S, E32A
notes: also called MS1032LO11-SG1
B12: MS_M103205H795-SG1/M103202L1060-SK1 (antibody, human IgG1, kappa, V domains shown)
VH: B6 VH with M57T, K108L
VL: B3 VL with T25S, Y30F, Y58W
notes: also called MS1032LO24-SG1
B13: Ab003 (M103205H009/M103202L000) (antibody, V domains shown)
VH: B6 VH with H31S, D32Y, Y53H, M57T, H104T, K108L
VL: B3 VL with T24Q, T25S, H31D, E32N, Y58S, R98L
notes: variant of MS1032LO00-SG1
B14: Ab006 (M103205H000/M103202L008) (antibody, V domains shown)
VH: B6 VH with H31S, D32Y, M57T, H104T, K108L
VL: B3 VL with T24Q, T25S, E32N, Y58S, R98L
notes: variant of MS1032LO00-SG1
B15: Ab007 (M103205H028/M103202L008) (antibody, V domains shown)
VH: B6 VH with H31S, D32Y, M57T, K108L
VL: B3 VL with T24Q, T25S, E32N, Y58S, R98L
notes: variant of MS1032LO00-SG1
B16: Ab005 (M103205H028/M103202L000) (antibody, V domains shown)
VH: B6 VH with H31S, D32Y, M57T, K108L
VL: B3 VL with T24Q, T25S, H31D, E32N, Y58S, R98L
notes: variant of MS1032LO00-SG1
B17: Ab004 (M103205H026/M103202L000) (antibody, V domains shown)
VH: B6 VH with H31S, D32Y, M57T, Y102H, H104T, K108L
VL: B3 VL with T24Q, T25S, H31D, E32N, Y58S, R98L
notes: variant of MS1032LO00-SG1

molecular target: T4, human Fc gamma RIIIaV extracellular domain, His-tagged (human, UniProt P08637 17-208); test: SPR 25C
T4 construct: also called FcgRIIIaV
T4 sequence (P08637 17-208 F176V): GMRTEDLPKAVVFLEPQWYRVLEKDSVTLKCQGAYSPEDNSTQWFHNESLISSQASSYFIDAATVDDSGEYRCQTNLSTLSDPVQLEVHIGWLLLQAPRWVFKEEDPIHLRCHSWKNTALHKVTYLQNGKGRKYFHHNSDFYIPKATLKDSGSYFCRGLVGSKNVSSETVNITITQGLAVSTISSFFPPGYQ

relative binding | Binder
0 parent B3=100 | B1
0 parent B3=100 | B2

molecular target: T1, mouse latent myostatin; test: SPR 37C pH7.4; pH 7.4

Kd | Binder
0.259 nM | B3
0.299 nM | B4
0.271 nM | B5
0.319 nM | B6
0.314 nM | B7
0.266 nM | B8
0.261 nM | B9
0.413 nM | B10
0.362 nM | B11
0.176 nM | B12

molecular target: T2, human latent myostatin; test: SPR 37C pH7.4; pH 7.4

Kd | Binder
0.276 nM | B3
0.285 nM | B4
0.273 nM | B5
0.275 nM | B6
0.351 nM | B7
0.26 nM | B8
0.257 nM | B9
0.407 nM | B10
0.419 nM | B11
0.164 nM | B12

molecular target: T3, cynomolgus monkey latent myostatin; test: SPR 37C pH7.4; pH 7.4

Kd | Binder
0.34 nM | B3
0.343 nM | B4
0.326 nM | B5
0.339 nM | B6
0.419 nM | B7
0.299 nM | B8
0.309 nM | B9
0.492 nM | B10
0.502 nM | B11
0.189 nM | B12

molecular target: T1, mouse latent myostatin; test: SPR 37C pH5.8; pH 5.8

Kd | Binder
9.88 nM | B3
22.6 nM | B4
28.7 nM | B5
30.8 nM | B6
10.9 nM | B7
6.4 nM | B8
29.4 nM | B9
24.8 nM | B10
29.2 nM | B11
1.02 nM | B12

molecular target: T2, human latent myostatin; test: SPR 37C pH5.8; pH 5.8

Kd | Binder
25.5 nM | B3
34 nM | B4
45.8 nM | B5
46.2 nM | B6
43.8 nM | B7
16.1 nM | B8
52.3 nM | B9
84.9 nM | B10
143 nM | B11
1.52 nM | B12

molecular target: T3, cynomolgus monkey latent myostatin; test: SPR 37C pH5.8; pH 5.8

Kd | Binder
14.1 nM | B3
25.9 nM | B4
35.6 nM | B5
34.7 nM | B6
16.1 nM | B7
7.71 nM | B8
31 nM | B9
35.8 nM | B10
43.5 nM | B11
0.929 nM | B12

molecular target: T2, human latent myostatin; test: SPR, dissociation phase at pH5.8

koff | Binder
0.00088 s⁻¹ | B13
8.58e-05 s⁻¹ | B14
0.000415 s⁻¹ | B15
7.63e-05 s⁻¹ | B16
0.000186 s⁻¹ | B17

molecular target: T1, mouse latent myostatin; test: SPR 37C

ratio of KD at pH 5.8/pH7.4 | Binder
38 | B3
76 | B4
106 | B5
97 | B6
35 | B7
24 | B8
113 | B9
60 | B10
81 | B11
6 | B12

molecular target: T2, human latent myostatin; test: SPR 37C

ratio of KD at pH 5.8/pH7.4 | Binder
92 | B3
119 | B4
168 | B5
168 | B6
125 | B7
62 | B8
204 | B9
209 | B10
341 | B11
9 | B12

molecular target: T3, cynomolgus monkey latent myostatin; test: SPR 37C

ratio of KD at pH 5.8/pH7.4 | Binder
41 | B3
76 | B4
109 | B5
102 | B6
38 | B7
26 | B8
100 | B9
73 | B10
87 | B11
5 | B12
